Measurements reported in publication PMC9890229.

What was measured:
[1] = biological target: T1, Hfq;Crc (Pseudomonas aeruginosa;Pseudomonas aeruginosa) (UniProt Q9HUM0+Q51380); experiment: cryo-EM; details: EMSA: 20 mM Tris-HCl pH 8.0, 40 mM NaCl, 10 mM KCl, 1 mM MgCl2; 200 nM RNA; 15 min at 37 C; 4% PAA gel in 1x TBE at 4 C, SYBR gold
[2] = biological target: T1, Hfq;Crc (Pseudomonas aeruginosa;Pseudomonas aeruginosa); experiment: EMSA; details: EMSA: 20 mM Tris-HCl pH 8.0, 40 mM NaCl, 10 mM KCl, 1 mM MgCl2; 200 nM RNA; 15 min at 37 C; 4% PAA gel in 1x TBE at 4 C, SYBR gold

Row | Sequence | binding [1] | binding [2]
1 | GGAACGCAAACGUUUGCGUCUGGAUAAUCUCCUGGAAAAGCCUCAAUACAACGAUAAGAAAAGCUGGAGGAUACACCAUGAAGCGGGUCGCUUCCCGGCGCCUGUUGGCU [rbsB110] | binds | binds
2 | GGCUGAGGAGGCUUUACGACGGGCCCCGGGGCGCAUGCCGACGACGCGGCGGCCCGACAAUAAAAACAAAUCAUGGAGUAAGAGAAUGAUCAGAAUGGCGCUCAAGCCACUGGUAGCG [estA118] | binds | binds
3 | GGGCCUUUUUUCGUCCCGAAAAAAUAACAACAAGAGGUGAUAUCCAUGCGUCACGGCGAUAUUUCCAGCAGCAACGACACCGUCGGAGUGGCGGUGGUCAACUAC [amiE105] | binds | binds
